# Article PMC7900552, “Iris domestica (iso)flavone 7- and 3′-O-Glycosyltransferases Can Be Induced by CuCl2” (Frontiers in Plant Science, 2021)
# Substitutions are numbered along the chain they refer to.
# B1: BcUGT7 (Iris domestica) (protein)
# chain: MQLKESVVLFPSVGMGHLIPMVELAKLFIGHGFSVTIVVVEPPFDASTTSGPFISRVSSEYPSISFHRLPKVVPPATSKPPMIVIYETLRLACPHLLDFLKTIRSTAKVRALVLDMFCTSALDVADELGLPSYFFFASGASALAAYLLLPTLQSKLDGNFRDLGSSPVHFPGVPPVPASDLLTHVQERGESNDGIMLHFKRFPRAKGIMINTPEWLEKRAVEALANGECLPDRTMPPVYCIGPLVANGSNGGEGGGERHECLAWLDAQPEKSVVFLCFGSLGSFSGEQLKEMAIGLERSGQLFLWVVRSPPLKDDPAARPGARPEPDLEALLPEGFLERTKGKGMVVKSWAPQAAVLAHGSVGGFVSHCGWNSTLEAVSSGVPIIAWPLYAEQRMNKVFLVEEAKVAVAMEGYDKDIVSAEEVEKKIRWLMESKDGKAMKDRAVEAKEKAVAAWKEDGSSSLAWLELERALRMGA
# notes: full ORF in pCold-TF, E. coli, His-tag + trigger factor fusion (~105 kDa; UGT ~53 kDa), Ni-NTA
# B2: BcUGT1 (Iris domestica) (protein)
# chain: MQLKESVVLFPSMGMGHIIPMVELAKLFIGHGFSVTIVDVEPPFDDSTTKGPFISRISSEYPSISFHRLPKVIPPATSRPPVFAFIETLRLACPHLLDFLKTIRSTTNVRALVLDMFCTPALDVADELGLPSYFFFSSSASILAAFLFFPILQDKLDGNFRDLGSSPIHFPGLPPVPASDLPTQMQERGEANDGIMFHFNSYPRATGIMINTLEWLEKRAIEVLANGECLPDRTMPPVYCIGPLVATGSNEGEGEGEGEKHECLAWLDAQPEKSVVFLCFGSMGSFSAEQVKEIAIGLERSGQRFLWVVRSPPLKDDPAARHGARPEPDLEALLPEGFLERTKEKGMVVKSWAPQAAVLAHGSVGGFVSHCGWNSTLEAVSSGVPIIAWPLYAEQRMNKVFLVEEAKLAVAMEGYNKDVVSAEEVEKKIRWLMESEDGKALKDRAVEAKEKAVAAWKQEGSSFLAWLELVRAVRKEA
# notes: as for B1
# B3: BcUGT2 (Iris domestica) (protein)
# chain: B2 chain with E344G, N416D, A440V, L441M, W456R, K457M, E459D, F463S
# B4: BcUGT5 (Iris domestica) (protein)
# chain: MQLKESVVLFPSVGMGHLIPMVELAKLFIGHGFSVTIVVVEPPFDVSTTNHPFISRVSSEYPSISFHRLPKVIPPATSRPPVFAFIETLRLACPHLLDFLKTIRSTSNVRALVLDMFCTSALDVADELGLPSYFFFASGASTLAAFLLLPTLQSKLDGNFRDLGSSPVHFPGLPPVPASDLLIHVQERGEANDEIMFHFKRLPRAKGIMINTMEWLEKRAVEALANGECLPDRTMPPVYCIGPLVASGSNGGGGEGERHECLAWLDAQPEKSVVFLCFGSMGSFSAEQVKEMAVGLERSGQRFLWVVRSPPLKDDPAARPGARPEPDLEALLPEGFLERTKGKGMVVKSWAPQAAVLAHGSVGGFVSHCGWNSTLEAVSSGVPIIAWPLYAEQRMNKVFLVEEAKLAVAMEGYNKDVVSAEEVEKKIRWLMESEDGKALKDRAVEAKEKAVAAWKQEGSSSLAWLELVRAVRKEA
# notes: as for B1
# B5: BcUGT4 (Iris domestica) (protein)
# chain: MQLKESVVLFPSVGMGHLIPMVELAKLFIGHGFSVTIVVVEPPFDVSTTNHPFISRVSSEYPSISFHRLPKVVPPATFRPPVIVLFETLRLACPQLLDFLKTIRSTSNVRALVLDMFCTSALDVADELGLPSYFFFASGASTLAAFLLFPTLQSKLDGNFRDLGSSPVHFPGLPPVPASDLPTQMQERGEANDGIMFHFKRLPRAKGIMINTPEWLEKRAVEALANGECLPDRTMPPVYCIGPLVASGSNGGGGGEGERHECLAWLDAQPKKSVVFLCFGSMGSFSAEQVKEMAVGLERSGQRFLWVVRSPPLKDDPAARPGARPEPDLEALLPEGFLERTKGKGMVVKSWAPQAAVLAHGSVGGFVSHCGWNSTLEAVSSGVPIIAWPLYAEQRMNKVFLVEEAKLAVAMEGYNKDVVSAEEVEKKIRWLMESEDGKALKDRAVEAKEKAVAAWKQEGSSFLAWLELVRAVRKEA
# notes: as for B1
# B6: BcUGT8 (Iris domestica) (protein)
# chain: MEFTQSVILYPSLGMGHLIPTLELAKLFIDQGFSVTIVVIDSPPSDTSSTMDSFISRASSAYPSLSFHRLPKVAPPASKLPMVFLSETVRLANASLLDFLSSKKSTSDIRAVVLDMFCSASLDIVEELHLPSYFFFSSSASALAACLFFPTLQSQLAGSFRDLGSSPVHFPGLPPIPASDLPADVQVRGESYDAALAHFVRLPRADGIMINTFESLEKRAVRALVDGVCVPGRATPPVYCIGPLIADGSDGGERHECLAWLDAQPERSVVFLCFGSMGSFSTEQLKETAGGLERSGQRFLWVVRSPPSDPAYPFGPRAETELEALLPEGFLERTRERGMVLESWAPQAAVLAHRSVGGFVSHCGWNSTLEAVCSGVPMLGWPLYAEQRMNRVSLVEEAKVAVAMEGCHNGLVSADEVETKIRRLMESRALGERMAATKERAVAARTEGGESTLALLELVRALRKATPGTGA
# notes: as for B1
# Substrate: COc1c(O)cc2occ(-c3ccc(O)cc3)c(=O)c2c1O
# Test: purified protein
# Conditions: 2 mM UDP-glucose, 1 mM DTT, 50 mM PBS, pH 8.0, 30°C, 10 min
Protein,Km [µM],kcat [s⁻¹],kcat/Km [M⁻¹ s⁻¹]
B1,1269 ± 9,15.86 ± 7.53,19800
B2,592 ± 49,57.29 ± 4.94,96800
B3,392 ± 7,70.10 ± 9.86,179000
B4,201 ± 15,116.03 ± 6.98,577000
B5,115 ± 23,155.18 ± 12.26,1.35e+06

# Substrate: COc1cc(-c2coc3cc(O)c(OC)c(O)c3c2=O)cc(O)c1OC
# Test: HPLC glucosylation assay
# Assay type: biochemical, Iris domestica
# Conditions: 2 mM UDP-glucose, 1 mM DTT, 50 mM PBS, pH 8.0, 30°C, 10 min
Protein,Km [µM],kcat [s⁻¹],kcat/Km [M⁻¹ s⁻¹]
B1,894 ± 11,17.73 ± 9.89,19800
B2,210 ± 13,58.88 ± 3.24,280000
B6,1423 ± 21,11.97 ± 1.31,8410
B4,121 ± 9,296.52 ± 11.8,2.45e+06
B5,190 ± 7,57.23 ± 18.21,301000
